Results: paper doi:10.1101/2020.05.20.106609 (bioRxiv, 2020)

Tests used:
[1] = biological target: SARS-CoV-2 spike N terminal domain (NTD) (SARS-CoV-2 Wuhan-Hu-1 (QHD43416), UniProt P0DTC2); experiment: ELISA
[2] = biological target: T1, SARS-CoV-2 spike receptor binding domain (RBD) (SARS-CoV-2 Wuhan-Hu-1 (QHD43416), UniProt P0DTC2); experiment: cell-based or functional assay
[3] = biological target: SARS-CoV-2 spike S1 subunit (SARS-CoV-2 Wuhan-Hu-1 (QHD43416), UniProt P0DTC2); experiment: ELISA
[4] = biological target: T1, SARS-CoV-2 spike receptor binding …; experiment: BLI

Binder | binding result [1] | NT50, plaque reduction neutralization test (PRNT), SARS-CoV-2 on Vero E6 cells [2] [µg/mL] | Kd [3] [nM] | Kd [4] [nM]
MD62 (scFv, V domains shown) VH: EVQLVQSGGGLIQPGGSLRLSCAASGVTVSSNYMTWVRQAPGKGLEWVSLIYSGGSTYYADSVKGRFTISRDNSKNTLYLQMNSLRAEDTAVYYCARDLQYYGMDVWGQGTMVTVSS VL: AIRMTQSPSSVSASVGDRVTITCRASQDIGSWLGWYQQKPGKAPKLLIYAASSLAGGVPSRFSGSGSGTDFTLTISSLQPEDFATYYCQQANSFPLTFGGGTKLEIK | no binding | 1.6 | – | –
MD45 (scFv, V domains shown) VH: EVQLVQSGGGLVQPGGSLRLSCAASGFTVSSNYMTWVRQAPGKGLEWVSVIYSGGSTFYADSVKGRFTISRHNSKNTLYLQMNSLRAEDTAVYYCARDLSVRGGMDVWGQGTMVTVSS VL: EIVLTQSPGTLSLSPGERATLSCRASQSVNSSYLAWYQQKPGQAPRLLIYGASNRATGIPDRFSGSGSGTDFTLTISRLEPEDFAVYYCQQYGVSPEIIFGQGTRLEIK | no binding | 2.1 | 12.7 | –
MD67 (scFv, V domains shown) VH: EVQLVESGGGLVQPGGSLRLSCAASGFTVSSNYMTWVRQAPGKGLEWVSVIYSGGSTFYADSVKGRFTISRHNSKNTLYLQMNSLRAEDTAVYYCARDLSVRGGMDVWGQGTTVTVSS VL: not shown | no binding | 1.9 | – | 0.4 to 5.8
MD17 (scFv, V domains shown) VH: EVQLLESGGGLVQPGGSLRLSCSASGFTFSTYVMNWVRQAPGKGLEHVSGISSDGGITYYADSVKGRFTISRDNSKNTLYLQMSSLRVEDTAVYYCVKDQDSSSWYDAFDIWGQGTMVTVSS VL: DIVMTQSPSSLSASVGDRVTITCRASQSISNYLNWYQQKLGKAPKLLTYAASRLQSGVPSRFSASGSGTEFTLTISSLQPEDFATYYCQQSYTTPLTFGGGTKLEIK | no binding | 43 | – | –
MD29 (scFv, V domains shown) VH: QMQLVQSGGGLVQPGGSLRLSCSASGFTFSTYVMNWVRQAPGKGPEHVSGISSDGGITYYADSVKGRFTISRDNSKNTLYLQMSSLRVEDTAVYYCVKDQDSSSWYDAFDIWGQGTMVTVSS VL: NIRLTQSPSSLSASVGDRVTITCRATQSISSYLNWYQQKPGKAPNLLIYAASSLQSGVPSRFSGSGSGTDFTLTISSLQPEDFATYYCHQTYTSPYTFGQGTKLEIK | no binding | 13 | – | 0.4 to 5.8
MD47 (scFv, V domains shown) V domain 1: QMQLVQSGGGLVQPGGSLRLSCAASGFTFSSYAMSWVRQAPGKGLEWVSAISSGGSTYYADSVKGRFTISRDNSKNTLYLQMNSLRAEDTAVYYCAKDLVTAPSYEAFDIWGQGTMITVSS V domain 2: NFMLTQPPSVSVAPGKTARITCGGNNIGSKSVHWYQQKPGQAPVLVIYYDSDRPSGIPERFSGSNSGNTATLTISRVEAGDEADYYCQVWDSSSHHHVVFGGGTKGTVL | no binding | 13 | – | –
MD63 (scFv, V domains shown) VH: QVTLKESGGGVVQPGRSLRLSCAASGFTFSSYAMHWVRQAPGKGLEHVSAISSDGGITYFADSVKGRFTISRDNSRNTLFLQMSSLRVEDTAVYYCVKDQDSNSWYDAFDIWGRGTMVTVSS VL: not shown | no binding | – | 15.6 | –
